First the molecules themselves.
B2: Arabidopsis COP1^349–675 WD40 domain (domain or fragment)
chain: TFTRYSRLRVIAEIRHGDIFHSANIVSSIEFDRDDELFATAGVSRCIKVFDFSSVVNEPADMQCPIVEMSTRSKLSCLSWNKHEKNHIASSDYEGIVTVWDVTTRQSLMEYEEHEKRAWSVDFSRTEPSMLVSGSDDCKVKVWCTRQEASVINIDMKANICCVKYNPGSSNYIAVGSADHHIHYYDLRNISQPLHVFSGHKKAVSYVKFLSNNELASASTDSTLRLWDVKDNLPVRTFRGHTNEKNFVGLTVNSEYLACGSETNEVYVYHKEITRPVTSHRFGSPDMDDAEEEAGSYFISAVCWKSDSPTMLTANSQGTIKVLVLAA

Test [1] has as its target T1, COP1^349–675,Lys422Ala WD40 domain (Arabidopsis, UniProt P43254 349-675, Lys422Ala).
T1 sequence: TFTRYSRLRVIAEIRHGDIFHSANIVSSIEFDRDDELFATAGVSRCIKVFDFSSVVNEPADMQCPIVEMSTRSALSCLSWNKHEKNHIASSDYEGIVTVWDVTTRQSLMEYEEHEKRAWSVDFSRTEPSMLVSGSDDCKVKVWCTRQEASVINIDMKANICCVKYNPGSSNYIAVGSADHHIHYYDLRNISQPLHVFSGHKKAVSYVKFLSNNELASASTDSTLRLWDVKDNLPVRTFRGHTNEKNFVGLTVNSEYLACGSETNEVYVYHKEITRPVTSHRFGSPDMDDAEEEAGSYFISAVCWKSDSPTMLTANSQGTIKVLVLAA
Nature of the test: ITC. On the technique in general: In ITC the heat of successive injections is recorded.

In test [2] the target is B2. The test is described as follows: ITC.
Test [3] has as its target B2.
The target of test [4] is B2.
For test [5], the target named is T2, UVR8^ValPro/AlaAla (recombinant) (Arabidopsis, UniProt Q9FN03 1-440, ValPro/AlaAla).
T2 sequence: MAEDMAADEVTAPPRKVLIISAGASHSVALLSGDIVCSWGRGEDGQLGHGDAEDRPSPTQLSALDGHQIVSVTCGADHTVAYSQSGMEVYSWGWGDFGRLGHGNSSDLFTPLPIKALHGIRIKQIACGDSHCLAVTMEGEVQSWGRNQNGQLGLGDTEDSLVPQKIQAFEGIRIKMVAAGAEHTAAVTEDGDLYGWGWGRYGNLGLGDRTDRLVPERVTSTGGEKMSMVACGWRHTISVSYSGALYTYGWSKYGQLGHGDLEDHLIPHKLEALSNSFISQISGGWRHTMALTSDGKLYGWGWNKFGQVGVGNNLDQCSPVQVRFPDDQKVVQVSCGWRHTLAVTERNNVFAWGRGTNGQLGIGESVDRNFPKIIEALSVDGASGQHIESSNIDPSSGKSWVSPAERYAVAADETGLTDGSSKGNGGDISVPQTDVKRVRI

Test [6] concerns the target UVR8^HY5C44 chimera (recombinant) (Arabidopsis, UniProt Q9FN03). Nature of the test: UV-B-activated chimera.
For test [7], the target named is T3, COP1^Tyr441Ala WD40 domain (Arabidopsis, UniProt P43254 349-675, Tyr441Ala).
T3 sequence: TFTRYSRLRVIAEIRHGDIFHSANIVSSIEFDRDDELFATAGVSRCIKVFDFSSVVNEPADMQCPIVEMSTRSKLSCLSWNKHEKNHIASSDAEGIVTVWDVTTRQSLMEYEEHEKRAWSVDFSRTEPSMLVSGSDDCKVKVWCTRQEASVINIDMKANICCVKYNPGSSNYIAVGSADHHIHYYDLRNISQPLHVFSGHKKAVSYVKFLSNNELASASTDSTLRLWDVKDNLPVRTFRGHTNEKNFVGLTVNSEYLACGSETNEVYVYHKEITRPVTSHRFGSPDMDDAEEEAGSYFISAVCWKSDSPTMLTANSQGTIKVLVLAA
Nature of the test: ITC.

Test [8] concerns the target T1, COP1^349–675,Lys422Ala WD40 domain. Nature of the test: ITC. This is another data set of the same source.
The target of test [9] is B2. The test is described as follows: ITC.
In test [10] the target is B2. The test is described as follows: ITC.
Test [11] concerns the target B2.
The target in test [12] is B2.

This is an account of results in paper PMC6745501 (2019).

Read-outs that look alike come from different tables or passages of the source.

As a reminder, the Kd is a measure of binding affinity in units of concentration. Broadly, the koff is the rate constant with which the complex falls apart. High values mean a short-lived complex, low ones a long-lived complex.

For the molecule GYGIVPSF [CO^366–373 VP peptide], the results for the Kd in [1] and in [2] were 21 µM and 74 µM, respectively.

Turning to NDQQVPSAV [CRY2^527–535 VP peptide], the Kd came out at 560 µM in test [1] and 21 µM in test [2].

On to EDQMVPSIT [CRY1^544–552 VP peptide], for which the Kd amounted to 76 µM in test [1] and 3 µM in test [2].

B1: full‐length HY5 protein (recombinant) (natural protein)
chain: MQEQATSSLAASSLPSSSERSSSSAPHLEIKEGIESDEEIRRVPEFGGEAVGKETSGRESGSATGQERTQATVGESQRKRGRTPAEKENKRLKRLLRNRVSAQQARERKKAYLSELENRVKDLENKNSELEERLSTLQNENQMLRHILKNTTGNKRGGGGGSNADASL
Consider B1, for which the off-rate (koff) in [3] was determined as 0.0832 s⁻¹. Binding in test [4] was put at a Kd of 1.2 µM.

Turning to B2, the values for the Kd in [5] and in test [6] were 2.2 µM and 0.269 µM, respectively.

For EIRRVPEFGG [HY5^39–48 VP peptide], the equilibrium dissociation constant (Kd) in test [7] turned out to be 230 µM; in test [8] it was 23 µM; in test [9], 23 µM.

The molecule SDQIVPEY [TRIB1 VP peptide] returned an equilibrium dissociation constant (Kd) in [10] of 1.6 µM.

B3: UVR8^HY5VP chimera (recombinant) (other)
chain: MAEDMAADEVTAPPRKVLIISAGASHSVALLSGDIVCSWGRGEDGQLGHGDAEDRPSPTQLSALDGHQIVSVTCGADHTVAYSQSGMEVYSWGWGDFGRLGHGNSSDLFTPLPIKALHGIRIKQIACGDSHCLAVTMEGEVQSWGRNQNGQLGLGDTEDSLVPQKIQAFEGIRIKMVAAGAEHTAAVTEDGDLYGWGWGRYGNLGLGDRTDRLVPERVTSTGGEKMSMVACGWRHTISVSYSGALYTYGWSKYGQLGHGDLEDHLIPHKLEALSNSFISQISGGWRHTMALTSDGKLYGWGWNKFGQVGVGNNLDQCSPVQVRFPDDQKVVQVSCGWRHTLAVTERNNVFAWGRGTNGQLGIGESVDRNFPKIIEALSVDGASGQHIESSNIDPSSGKSWVSPAEEIRRVPEFTGLTDGSSKGNGGDISVPQTDVKRVRI
In turn, B3 gave a Kd in test [11] of 0.069 µM. In test [12], this molecule yielded a dissociation rate constant (koff) of 0.0532 s⁻¹.

B4: UVR8^TRIB1VP chimera (recombinant) (other)
chain: MAEDMAADEVTAPPRKVLIISAGASHSVALLSGDIVCSWGRGEDGQLGHGDAEDRPSPTQLSALDGHQIVSVTCGADHTVAYSQSGMEVYSWGWGDFGRLGHGNSSDLFTPLPIKALHGIRIKQIACGDSHCLAVTMEGEVQSWGRNQNGQLGLGDTEDSLVPQKIQAFEGIRIKMVAAGAEHTAAVTEDGDLYGWGWGRYGNLGLGDRTDRLVPERVTSTGGEKMSMVACGWRHTISVSYSGALYTYGWSKYGQLGHGDLEDHLIPHKLEALSNSFISQISGGWRHTMALTSDGKLYGWGWNKFGQVGVGNNLDQCSPVQVRFPDDQKVVQVSCGWRHTLAVTERNNVFAWGRGTNGQLGIGESVDRNFPKIIEALSVDGASGQHIESSNIDPSSGKSWVSPAESDQIVPEY
Regarding B4, the dissociation constant (Kd) in test [11] was 0.093 µM. The same molecule had a koff in test [12] of 0.0319 s⁻¹.

Regarding RYAVVPDE [UVR8^406–413 VP peptide], the Kd in [8] was determined as 16 µM; in test [9], 190 µM.

For the molecule GFGVVPSF [COL3^287–294 VP peptide], the Kd was determined as 7.8 µM in test [1] and 39 µM in [2].
